This is an account of results in patent US20040234530A1 (WISCONSIN ALUMNI RESEARCH FOUNDATION, published 2004).

In the assay the target is T1, StcE′ E435D-His (as StcE′-His with glutamic to aspartic acid at residue 435; from pTB5, strain WAM2804) (E. coli O157:H7 EDL933 (plasmid pO157), UniProt O82882 36-898).
T1 sequence: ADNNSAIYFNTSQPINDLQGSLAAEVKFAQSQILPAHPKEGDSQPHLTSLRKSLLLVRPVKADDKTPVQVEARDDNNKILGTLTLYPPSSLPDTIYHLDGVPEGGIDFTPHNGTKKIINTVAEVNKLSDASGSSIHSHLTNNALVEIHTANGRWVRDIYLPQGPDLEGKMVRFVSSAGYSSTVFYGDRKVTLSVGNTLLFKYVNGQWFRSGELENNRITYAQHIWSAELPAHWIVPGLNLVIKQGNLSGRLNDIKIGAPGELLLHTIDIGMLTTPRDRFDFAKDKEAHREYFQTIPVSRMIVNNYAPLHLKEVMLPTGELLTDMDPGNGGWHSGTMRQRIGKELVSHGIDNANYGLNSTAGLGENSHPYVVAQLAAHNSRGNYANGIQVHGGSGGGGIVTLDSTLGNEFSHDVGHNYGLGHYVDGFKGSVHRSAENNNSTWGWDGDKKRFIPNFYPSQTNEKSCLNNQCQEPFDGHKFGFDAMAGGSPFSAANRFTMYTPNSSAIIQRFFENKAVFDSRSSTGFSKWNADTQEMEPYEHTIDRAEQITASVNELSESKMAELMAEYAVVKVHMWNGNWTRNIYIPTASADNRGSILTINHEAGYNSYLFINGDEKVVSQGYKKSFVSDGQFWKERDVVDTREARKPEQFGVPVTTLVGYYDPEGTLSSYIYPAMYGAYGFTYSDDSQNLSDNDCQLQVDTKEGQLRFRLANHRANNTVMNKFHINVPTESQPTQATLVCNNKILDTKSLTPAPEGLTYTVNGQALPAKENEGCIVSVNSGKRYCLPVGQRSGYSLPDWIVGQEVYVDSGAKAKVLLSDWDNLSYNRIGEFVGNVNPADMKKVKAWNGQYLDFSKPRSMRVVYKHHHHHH

B1: C1-esterase inhibitor (human plasma protease C1 inhibitor), purified or in human serum (other, UniProt P05155 23-500, looked up)
chain: NPNATSSSSQDPESLQDRGEGKVATTVISKMLFVEPILEVSSLPTTNSTTNSATKITANTTDEPTTQPTTEPTTQPTIQPTQPTTQLPTDSPTQPTTGSFCPGPVTLCSDLESHSTEAVLGDALVDFSLKLYHAFSAMKKVETNMAFSPFSIASLLTQVLLGAGENTKTNLESILSYPKDFTCVHQALKGFTTKGVTSVSQIFHSPDLAIRDTFVNASRTLYSSSPRVLSNNSDANLELINTWVAKNTNNKISRLLDSLPSDTRLVLLNAIYLSAKWKTTFDPKKTRMEPFHFKNSVIKVPMMNSKKYPVAHFIDQTLKAKVGQLQLSHNLSLVILVPQNLKHRLEDMEQALSPSVFKAIMEKLEMSKFQPTLLTLPRIKVTTSQDMLSIMEKLEFFDFSYDLNLCGLTEDPDLQVSAMQHQTVLELTETGVEAAAASAISVARTLLVFEVQQPFLFVLWDQQHKFPVFMGRVYDPRA
modifications: heavily glycosylated N-terminal domain
Turning to B1, the “fold level of C1-INH on erythrocyte surfaces against that in the presence of StcE′-His” value came to 22 fold.
